Here are results for one substance from PMC10940300.

In the test the target is preF^C (soluble RSV F A2 prefusion F in the Cav1 background with V185Y, K226Y, N428Y, L512V, L513V and Y519F, before crosslinking) (respiratory syncytial virus (RSV F A2) | not stated) (UniProt P03420). The test can be described thus: cross-linking; dityrosine crosslinking reaction (Arthromyces ramosus peroxidase and H2O2) of the purified protein; reducing SDS-PAGE (TCEP, 95 °C), Coomassie stain, gel shift from monomer to trimer. A general note: A gel shift assay detects complexes by their altered migration in electrophoresis.

For the substance “preF^C (soluble RSV F A2 prefusion F in the Cav1 background with V185Y, K226Y, N428Y, L512V, L513V and Y519F, before crosslinking) (from UniProt P03420 26-109) (natural protein)”, the stoichiometry N was determined as 3.

As usually defined, the stoichiometry N is the number of molecules, sites or subunits per partner or assembly.
